# No end group written: not given here. *: point of attachment. Dnp = O=[N+]([O-])c1ccc(*)c([N+](=O)[O-])c1; 2Abz = Nc1ccccc1C(=O)O
# How the values were obtained:
# [1] = molecular target: T1, Enterokinase bovine light chain variant (C112A, L134K, I135K) (Bos taurus, UniProt P98072, C912A/I935K/L934K); assay: EK-kinetics_2: initial rates of Enterokinase hydrolysis of full length GLP-1 with an N-terminal extension (UPLC); assay type: biochemical; conditions: Z1 = entire [Arg34]GLP-1(9-37), N-terminal extension Z2; slowest D4K site in this set = 100%; initial substrate 1 mg/ml, pH 8.5
# T1 construct: the bovine light chain variant (C112A, L134K, I135K) as described in WO2013/092855A1; made in house
# T1 sequence (P98072 801-1035 C912A/L934K/I935K): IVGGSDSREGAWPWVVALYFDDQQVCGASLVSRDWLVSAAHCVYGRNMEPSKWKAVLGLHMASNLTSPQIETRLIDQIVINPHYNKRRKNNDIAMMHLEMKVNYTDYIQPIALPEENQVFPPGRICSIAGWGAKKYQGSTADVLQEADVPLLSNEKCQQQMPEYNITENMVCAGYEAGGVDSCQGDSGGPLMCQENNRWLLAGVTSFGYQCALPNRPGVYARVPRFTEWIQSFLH
# Method: Method: EK-kinetics_2 • EK-kinetics_2 was performed by calculating initial rates of hydrolysis of full length GLP-1 with an N-terminal extension. Substrate concentrations were in the range 150-300 μM. The hydrolysis reaction was started by adding an amount of enterokinase giving a final concentration of 9.5 nM. Samples were taken after 6.2 min, 18.7 min, 43.7 min, 86.3 min, 151.3 min, and 243.8 min and quenched by a 1+9 dilution into 5% acetic acid. A suitable method was used on a Waters iClass UPLC to separate and individually quantify remaining substrate and formed product on an analytical reversed-phase column by integrating peak areas. An equation of the following form was fitted to the raw data: […]
# wherein t is time, cs0 is initial substrate concentration, cE is enzyme concentration, cPt is product concentration at time t, cSt is substrate concentration at time t, kcat and Km are hydrolysis parameters, and Ki is product inhibition constant. A constant Ki of 0.1 μM was used for all reactions. Initial hydrolysis rates were calculated based on the parameters determined for a initial substrate concentration of 1 mg/ml for all peptides. All reactions were performed in 50 mM Tris buffer, 1 mM EDTA, pH 8.5.
# (§1) • The Enterokinase enzymes used for examples herein was the bovine light chain variant (C112A, L134K, I135K) as described in WO2013/092855A1.
# [2] = molecular target: T1, Enterokinase bovine light chain variant (C112A, L134K, I135K); assay: EK-kinetics_1: initial rates of Enterokinase hydrolysis of intramolecularly quenched fluorogenic peptides; assay type: biochemical; conditions: Z1 = HAEGT, X6 absent; for Activity (%): relative Enterokinase cleavage rate of reference substrates: reference EK-sites, normalised to substrate with D4K site = 100%
# Method: These peptide substrates have the following general structure: Z2*-X6-X5-X4-GDR-Z1* Formula (II) • wherein • X6-X5-X4 have the same meaning as in formula (I) (each being an amino acid, however X6 being optional), • Z2 is Lys(Dnp) and • Z1* is Z1-Lys(Abz)amide, where Z1 is as defined in formula (I). • SPPS_I was performed on a Multipep RSi synthesizer from Intavis Bioanalytical Instruments AG (Koeln, Germany) at 3-μmol scale in parallel using 2.5 fold excess of Fmoc-amino acids (300 mM in NMP with 300 mM Oxyma Pure®) relative to resin loading e.g. Rinkamide-Chematrix (0.5 mmol/g). Fmoc-deprotection was performed using 20% piperidine in NMP. Coupling was performed using 1:1:1:1 amino acid/Oxyma Pure®/DIC/collidine in NMP. All amino acids were “double or triple coupled”, meaning that after the first coupling (60 min), the resin is drained and more reagents are added (amino acid, Oxyma Pure®, DIC, and collidine), and the mixture allowed to react again (60 min).
# Method: EK-Kinetics_1 • EK-kinetics_1 was performed by measuring initial rates of hydrolysis of intramolecularly quenched fluorogenic peptides: Lys(Dnp)-peptide-Lys(Abz)amide according to formula (II). After measuring the background fluorescence of peptides, generally at a substrate concentration in the range of 1 to 50 μM, initial rates of hydrolysis was measured by addition of purified enterokinase enzyme at a concentration enabling reading the initial rate of hydrolysis, i.e. less than 5% hydrolysis in 30 min. Typically an enzyme concentration of 1 to 10 nM may be used. After up to one hour of hydrolysis additional enzyme was added to enable measurement of the fluorescence level at total hydrolysis. Hydrolysis rates were generally measured in 50 mM MOPS buffer, 1 mM EDTA, pH 7.5 at 25° C. using a Perkin Elmer Enspire fluorescence plate reader using 320 nm for excitation and 420 nm for emission.
# as §1
Substance,Activity (%): relative Enterokinase cleavage rate of reference substrates [2] [%],further results
DVKPGQPLYDEGDR-[Arg34]GLP-1(9-37) (DVKPGQPLYDEGDREGTFTSDVSSYLEGQAAKEFIAWLVRGRG; Enterokinase cleavable polypeptide) [Example 119],,Activity (%): relative Enterokinase cleavage rate [1]: 707%
Lys(Dnp)-AEGDR-HAEGT-Lys(Abz)amide (K(Dnp)AEGDRHAEGTK(2Abz)-NH2; N-terminus assumed; SMILES C[C@H](NC(=O)[C@H](Cc1c[nH]cn1)NC(=O)[C@H](CCCNC(=N)N)NC(=O)[C@H](CC(=O)O)NC(=O)CNC(=O)[C@H](CCC(=O)O)NC(=O)[C@H](C)NC(=O)[C@@H](N)CCCCNc1ccc([N+](=O)[O-])cc1[N+](=O)[O-])C(=O)N[C@@H](CCC(=O)O)C(=O)NCC(=O)N[C@H](C(=O)N[C@@H](CCCCNC(=O)c1ccccc1N)C(N)=O)[C@@H](C)O) [Example 1],,Activity (%): relative Enterokinase cleavage rate ([2]; initial rate normalised to substrate with D4K site = 100%): 382%
Lys(Dnp)-IMGDRHAEGT-Lys(Abz)amide (K(Dnp)IMGDRHAEGTK(2Abz)-NH2; N-terminus assumed; SMILES CC[C@H](C)[C@H](NC(=O)[C@@H](N)CCCCNc1ccc([N+](=O)[O-])cc1[N+](=O)[O-])C(=O)N[C@@H](CCSC)C(=O)NCC(=O)N[C@@H](CC(=O)O)C(=O)N[C@@H](CCCNC(=N)N)C(=O)N[C@@H](Cc1c[nH]cn1)C(=O)N[C@@H](C)C(=O)N[C@@H](CCC(=O)O)C(=O)NCC(=O)N[C@H](C(=O)N[C@@H](CCCCNC(=O)c1ccccc1N)C(N)=O)[C@@H](C)O) [Example 111],125,
Lys(Dnp)-INDDRHAEGT-Lys(Abz)amide (K(Dnp)INDDRHAEGTK(2Abz)-NH2; N-terminus assumed; SMILES CC[C@H](C)[C@H](NC(=O)[C@@H](N)CCCCNc1ccc([N+](=O)[O-])cc1[N+](=O)[O-])C(=O)N[C@@H](CC(N)=O)C(=O)N[C@@H](CC(=O)O)C(=O)N[C@@H](CC(=O)O)C(=O)N[C@@H](CCCNC(=N)N)C(=O)N[C@@H](Cc1c[nH]cn1)C(=O)N[C@@H](C)C(=O)N[C@@H](CCC(=O)O)C(=O)NCC(=O)N[C@H](C(=O)N[C@@H](CCCCNC(=O)c1ccccc1N)C(N)=O)[C@@H](C)O) [Example 112],126,
